Source: patent publication US20120309692A1
One block for each substance: values may come before it.

Target: recombinant human glandular kallikrein 2 (hK2) (human) (UniProt P20151)
Assay: cell-based or functional assay

Chain of SLPI (P03973 26-132 limits assumed): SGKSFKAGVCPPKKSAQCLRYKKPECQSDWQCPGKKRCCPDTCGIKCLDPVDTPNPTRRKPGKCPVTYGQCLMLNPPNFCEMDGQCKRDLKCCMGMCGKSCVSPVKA

- hK2 Activity (%) of inhibitor-free control, inhibitor at 5 µM: 0%
Substance: PPACK (peptide)

- hK2 Activity (%) of inhibitor-free control, inhibitor at 0.08 µM: 92%
- hK2 Activity (%) of inhibitor-free control, inhibitor at 4 µM: 35%
Substance: SLPI (from UniProt P03973 26-132)

- hK2 Activity (%) of inhibitor-free control, inhibitor at 100 µM: 33%
- hK2 Activity (%) of inhibitor-free control, inhibitor at 500 µM: 10%
Substance: antipain (peptide)

- hK2 Activity (%) of inhibitor-free control, inhibitor at 100 µM: 12%
Substance: leupeptin (peptide)
